We go through one molecule from US20110217282A1 (UNIVERSITY OF MEDICINE AND DENTISTRY OF NEW JERSEY, published 2011).

For this assay, the target named is T1, YgiT (E. coli, UniProt Q46864 1-131).
T1 construct: YgiT with no tag named, co-expressed with H-MqsR from pET-MqsRYgiT (the operon cloned in pET28a) or induced from pBAD-YgiT in cells; also called YgiT of the H-MqsRYgiT complex; YgiT expressed from pBAD-YgiT
T1 sequence: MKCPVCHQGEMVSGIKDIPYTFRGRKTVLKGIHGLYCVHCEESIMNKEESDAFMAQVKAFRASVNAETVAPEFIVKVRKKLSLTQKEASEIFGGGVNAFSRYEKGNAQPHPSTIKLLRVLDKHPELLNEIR
Description: co-expression and co-purification on Ni-NTA agarose through the tag of H-MqsR.

B1: N-terminal histidine-tagged MqsR (enzyme)
chain: MEKRTPHTRLSQVKKLVNAGQVRTTRSALLNADELGLDFDGMCNVIIGLSESDFYKSMTTYSDHTIWQDVYRPRLVTGQVYLKITVIHDVLIVSFKEK
notes: also called H-MqsR; His-MqsR; not shown: N-terminal histidine tag from pET28a
As for B1, the binding result is “binds”.
